According to CN114874324A (dated 2022):
Blank lines part the entries; values can stand above or below the binder they belong to.

Key:
[1] = target: T1, 可溶性LAG-3蛋白标准品(R&D Systems) (human, UniProt P18627 23-450, limits assumed); test: sandwich ELISA, wells pre-coated with 4E12
T1 construct: also called sLAG-3蛋白; sLAG-3
T1 sequence (looked up): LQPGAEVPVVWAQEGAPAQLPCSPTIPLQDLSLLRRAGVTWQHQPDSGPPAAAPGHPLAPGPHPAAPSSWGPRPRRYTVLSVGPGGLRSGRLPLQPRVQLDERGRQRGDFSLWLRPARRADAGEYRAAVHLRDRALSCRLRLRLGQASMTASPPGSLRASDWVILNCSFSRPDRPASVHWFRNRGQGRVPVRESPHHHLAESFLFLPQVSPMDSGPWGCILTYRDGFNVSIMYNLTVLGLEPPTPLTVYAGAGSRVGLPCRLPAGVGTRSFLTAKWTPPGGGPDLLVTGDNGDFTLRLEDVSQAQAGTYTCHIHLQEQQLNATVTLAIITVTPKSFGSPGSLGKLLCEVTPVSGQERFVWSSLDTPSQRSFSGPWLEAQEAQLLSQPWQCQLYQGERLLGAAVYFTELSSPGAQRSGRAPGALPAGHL

[2] = target: T1, 可溶性LAG-3蛋白标准品(R&D Systems); test: sandwich ELISA of the kit (4F4 and 4E12 as the antibody pair)

binding result [1]: binds
B1: LAG-3-4E12抗体 (antibody, V domains shown)
VH: EVKLVESGGGLVQPGGSLKLSCAVSGFAIRSYDMSWVRQTPEKRLEWVATISSGGSYSYYPDSVKGRFTISRDNARNTLYLQMSSLRSEDTALYYCASLSTAPAYWGQGTLVTVSA
VL: DIVMTQSQKFMSTSVGDRVSVTCKASQNVGTNVAWYQQKPGQSPKALIYSASYRYSGVPDRFTGSGSGTDFTLTISNVQSEDLAEYFCQQYNTYPHMYTFGGGTKLEIK
notes: Mouse (BALB/c) hybridoma monoclonal antibody; also called LAG-3-4E12单克隆抗体; 抗LAG-3单抗(克隆:4E12)

binding result [2]: binds
B2: LAG-3-4F4抗体 (antibody, V domains shown)
VH: QLQLKESGPEVVRPGVSVKISCKGSGYTFTDYAMYWVKQSHAKSLEWIGVISTYNGNTNYNQRFKGKATMTVDKSSSTAYMELARLTSEDSAIYYCARERGAMDYWGQGTSVTVSS
VL: DVLMTQTPLSLPVSLGDQASISCRSSQSIVHNNGNTYLEWYLQKPGQSPKLLIYKVSSRFSGVPDRFSGSGSGTDFTLKISRVEAEDLGIYYCFQGSHVPPTFGGGTKLEIK
notes: Mouse (BALB/c) hybridoma monoclonal antibody; also called 抗人LAG-3-4F4单克隆抗体; LAG-3包被抗体
